Experiment [1] deals with VARITECT (human polyclonal antibodies directed against Varicella Zoster antigens). Put plainly: inhibition ELISA with VARITECT; gE content by ELISA divided by Lowry protein; lyophilised gE. On the technique in general: An ELISA detects its analyte on a solid surface through an enzyme-linked reagent.
For experiment [2] the target is unchanged. Briefly: inhibition ELISA with VARITECT; gE content divided by titer of the standard; co-lyophilised gE/AS01.
Experiment [3] shares this target. Briefly: inhibition ELISA with VARITECT; gE content by ELISA divided by Lowry protein; sample gE/AS01 before lyophilisation.
Experiment [4] shares this target. Put plainly: inhibition ELISA with VARITECT; gE content by ELISA divided by Lowry protein; co-lyophilised gE/AS01.
Experiment [5] shares this target. Put plainly: inhibition ELISA with VARITECT; gE content divided by titer of the standard; lyophilised gE.
For experiment [6] the target is unchanged. Briefly: inhibition ELISA with VARITECT; gE content by ELISA divided by Lowry protein; control VZV gE vaccine.
Experiment [7] has the same target. Briefly: inhibition ELISA with VARITECT; gE content by ELISA divided by Lowry protein; gE before lyophilisation.
Experiment [8] shares this target. Briefly: inhibition ELISA with VARITECT; gE content divided by titer of the standard; control VZV gE vaccine.

As to “VZV gE antigen (truncated form of the Varicella Zoster Virus glycoprotein E) (from UniProt P09259 31-546)”, the Antigenic activity (gE/prot) in experiment [1] worked out at 1.01; in experiment [3], 0.96; in experiment [4], 0.99; in experiment [6], 1.15; in experiment [7], 1.05. In addition, the Potency in experiment [2] was 1.02; in experiment [5], 0.98; in experiment [8], 0.92.

The values are drawn from patent US20200188499A1.
